The DeepSol protein solubility set

test: soluble on expression in E. coli; label from the status in PepcDB or PDB records

Row | Sequence | soluble on expression in E. coli
1 | MKLIGITGMPGSGKSAITKLAEKYKIVVVSMGDVVRYETLKQGMPLNPENVGNTAVKLREIYGKEAIAVPCLNYVNEKYNNEDFVIIEGIRSIYEVNYIKKHAELDIIAIHSSPKTRFERLSGRNREDDSNDWNTFVERDERELNFSIGRVISLADYMVVNEGNYMDFVNDLENTFKKIINVN | not soluble
2 | MQTLQEILQQPELENKLLNQAKTVGFVTAMACCPNVLPPEEWLPFLWGGEEIAPFSDPIQLENYFEHIIALWNETRSQLLEGNWQWPTGYLLDEAEIVNQEVRDFCEGMLQGWQLARDDWEVLMPENSSDNTLLGGVLLSLSMLYDPETSIATLYEQGFTGLEQFAEIYHAIPVMLCGITQRGVTLAEAQ | not soluble
3 | MSGKRALITGIRGQDGAYLAKLLLEKGYEVYGADRRSGEFASWRLKELGIENDVKIIHMDLLEFSNIIRTIEKVQPDEVYNLAAQSFVGVSFEQPILTAEVDAIGVLRILEALRTVKPDTKFYQASTSEMFGKVQEIPQTEKTPFYPRSPYAVAKLFGHWITVNYREAYNMFACSGILFNHESPLRGIEFVTRKITYSLARIKYGLQDKLVLGNLNAKRDWGYAPEYVEAMWLMMQQPEPDDYVIATGETHTVREFVEKAAKIAGFDIEWVGEGINEKGIDRNTGKVIVEVSEEFFRPAEVDILVGNPEKAMKKLGWKPRTTFDELVEIMMEADLKRVRDREVSV | soluble
4 | MSLAPRDLIDIDRIFMEPAVADYPRGREILSRFPNAERIAVPSHWNIPELHGNEGSVEDWVRIKRSTLVLGVKKGLAMRPNGRSAHFIAPSTSNGCAMACAYCYVPRRKGFSNPISLFVNVEAVSAAIARHAAKQGPLPEPDQIDEAAWVYDLGENGDLSVDAMICDTVRDLVGLFRTLPNAKGSFATKAVNRDLLAYDPQGRTRIRFSLMPAPIARVVDVRTAPIRERIAAIDDFVAAGYEVHVNFSPVILYEGWEADWAELFAEIDGSISDAAKAQLKCEIIMLTHNAGLHEVNLGWHPKAEALLWRPDIQETKRSEGGGDNLRYRTGEGHHHHHH | not soluble
5 | MSLQVWTKLFAKSPFKPLIKHAEVVVETVETLEKALEAWAKGDYEKMKELAVEVDRLEDVADRIKMELRESITAKLLMPVQRSDVLEYLHMQDKIADAAEDTAKWLLVRDRGNVPEDIKDIILKMGKESIRAAKLVYEAIKQMDMVVESGFSENEIKKEYDLIRQIEEVENKIDGLDTKLMRLVLNANISWTEGIYLLNIGRTISNISDKAKDAAERIRIMMSKEGHHHHHH | soluble
6 | MGSDKIHHHHHHMKVVAVGGGTGLSTLLKGLKNIDSFEITAVVSVTDEGGSSGKLRKELNVPPPGDVRNNIVALAKDEDLLAKLMSYRFSEGSFKGHSLGNLIIAALTKIEGSFSEAIRILERVLAIKGRVLPVSEDHARLVARFEDGEEVIGETNIVRKGGKIVEVRLDRPIDALPEVLEAIERADIIIFGPGSLYTSIITNVLVNGVKDAIKKSKAKKIYVCNLMTQPGETTGYRVSDHVKELERYLEQSVDFVLVNTRKPSEEVLERYRKEGSDFVEIDAENIQNTILAEPFLVEIVDPSDGQRKIRHDSVKLADVIERISRW | not soluble
7 | EPPADGGQIKGVGSGRCLDVPDASTSDGTQLQLWDCHSGTNQQWAATDAGELRVYGDKCLDAAGTSNGSKVQIYSCWGGDNQKWRLNSDGSVVGVQSGLCLDAVGNGTANGTLIQLYTCSNGSNQRWTRT | soluble
8 | GPGSGLTELQMRARRCPNRQARIDWSEGEVRSFYQALSQYGTDFSAIAVLFPSRSRRDIKRLYQREMRQKPKEVQAALNQKHPIDMAVFEVRYEAKKKEAQQPVKMKKLNSEELAFLDEIAGRQPSESAMHMKGEELEVPVPAATLGGVEEATAAPPSRLRKRPRGTHQADSEDGPESKRATKEIPPAADDDFDMEQESFFDMVVRHEREDNAPLDMLFAAQLEQGQQQHLAALEDSDFSFE | soluble
9 | MSSASAHHKKDLLDQVNNPVFLQDLRQQMIKFAVLQLASLPHAEDVVQDALASAFQHLDSFTGRAAFKTWVFAILKNKIIDLIRQKSRLVSMSELFKDEESELSIDALFDASGHWHKYEAPQAWLSPEEMMEQQDFWIIFDACLNHLPAKYAQVFMLREVIELNSSEICEKLELTVSHFNVLMYRSRTRLRECLENKWLLQEDCSC | not soluble
10 | MWFKNLTLYRFNKPFSIETEALETALADFTFSPCGSQDVSKFGFSNALGKKGSTLVHSANNRHLICVTKEEKILPAQVIKESLEEKVAQIEDEENRKLAKKEKDALKDEIITSLLPRAFSRRSQTRALILPELEMILVDSSSATKAEELLALLRKALGSLPVIPLSFKAPIESQLTEWLKNGSAPLPFEMQDEAELKSAADEGGIVRFKQQDLKEDEVLAHLETGKEVHKLALHFGQSIALLLQSDASVKRLKFSEEFRAGNDELGNEDPMARLDADFALMGSELVALMHALVSALGGIEETQA | soluble
11 | MGSDKIHHHHHHMSVMFDPQAAIYPFPPKPTPLNDDEKQFYREKIKRLLKERNAVMVAHYYTDPEIQQLAEETGGCISDSLEMARFGTKHAASTLLVAGVRFMGETAKILSPEKTILMPTLAAECSLDLGCPIDEFSAFCDAHPDRTVVVYANTSAAVKARADWVVTSSIAVELIEHLDSLGEKIIWAPDRHLGNYVQKQTGADVLCWQGACIVHDEFKTQALTRLKKIYPDAALLVHPESPQSIVEMADAVGSTSQLIKAAKTLPHRQLIVATDRGIFYKMQQAVPEKELLEAPTAGEGATCRSCAHCPWMAMNGLKAIAEGLEQGGAAHEIQVDAALREGALLPLNRMLDFAATLRA | not soluble
12 | MSLIIETPSKVILFGEHAVVYGYRAISMAIDLTSTIEIKETQEDEIILNLNDLNKSLGLNLNEIKNINPNNFGDFKYCLCAIKNTLDYLNIEPKTGFKINISSKIPISCGLGSSASITIGTIKAVSGFYNKELKDDEIAKLGYMVEKEIQGKASITDTSTITYKGILEIKNNKFRKIKGEFEEFLKNCKFLIVYAEKRKKKTAELVNEVAKIENKDEIFKEIDKVIDEALKIKNKEDFGKLMTKNHELLKKLNISTPKLDRIVDIGNRFGFGAKLTGAGGGGCVIILVNEEKEKELLKELNKEDVRIFNCRMMNEGGSHHHHHH | soluble
13 | EVMLVESGGGLVKPGGSLKLSCAASGFTFSSYTMSWVRQTPEKRLEWVATISSGGGNTYYPDSVKGRFTISRDIAKNTLYLQMSSLRSEDTALYYCTRLGDYGYAYTMDYWGQGTSVTVSSAKTTPPSVYPLAPGGGGGGGAMVTLGCLVKGYFPEPVTVTWNSGSLSSGVHTFPAVLQSDLYTLSSSVTVPSSPWPSETVTCNVAHPASSTKVDKKIVPRDC | soluble
14 | KLKSVEKKLSESESRLELALEAANMGTWSWNIKRNEIFWSEQVLYIFGIKPEEFKGDFESYLNLIPSNERVQVEEYITNVLAKLQKEFFFDHSIQTPSGVKKRVYCKGKLYADHAGMPDSMTGVVLDVT | not soluble
15 | MGSDKIHHHHHHMYNLGKGVQECTETSLLTALGGMERRNLSELDTTLTSDNLPVVSHDFNTWRISTLPDRLIRELHSADVKNIPVIIREVSNGEITESYTVTNDIIPFLEPLLDKVFDVNPGATFFLDGRDFEAHIITAWLSRRPKYRQRVVLLFYTFEYSSGEAFFDAVKQVSPEPDWRETVALMPVIFPQELPRLAKLIDLSDIAVEDLYEGGKIWIDSMLRQPMRVVAVHIVMARVKPEQLGLCDKPEIVRAFNADYAAVRLAYYVKDNPEVRKMRPHLKLATATRCYDFSAQLENGEKAEFSINIRTGRPMPRETDERKYIRRGYGIPGNAAAIADWVISDRSEDEMSFWEWRNKGVPRRVDHHCPHLDVIEQDGKSVP | not soluble
16 | MAHHHHHHMQRDVYASLIKKRHKQMVPLLIHQVSGDITRENIFDEVFHGYKLRRIVLMTHMAATPATLPRLPRDIIVSDFDKLKAIHQPHFHYKLLPLLCTDFEAFSALQGICASANSPFTIEDRKDPQGLTHRLSNGCSERQALCEFFDPHIAPAEKLVPVFSRKLPISAVVFDGLLLKQNYPKVAALLTVHEAASEKSIIERAIMRDFFVSPLYTKVSGNSDVAQSLRLVHHCTHFMALKRAVGSDAPSRQSLMRLAAEKKLFMYEKIGDEYQFVH | soluble
17 | MGSDKIHHHHHHMLCSGYLGHDMEDDCDIIIIGAGIAGTACALRCARAGLSVLLLERAEIPGSKNLSGGRLYTHALAELLPQFHLTAPLERRITHESLSLLTPDGVTTFSSLQPGGESWSVLRARFDPWLVAEAEKEGVECIPGATVDALYEENGRVCGVICGDDILRARYVVLAEGANSVLAERHGLVTRPAGEAMALGIKEVLSLETSAIEERFHLENNEGAALLFSGRICDDLPGGAFLYTNQQTLSLGIVCPLSSLTQSRVPASELLTRFKAHPAVRPLIKNTESLEYGAHLVPEGGLHSMPVQYAGNGWLLVGDALRSCVNTGISVRGMDMALTGAQAAAQTLISACQHREPQNLFPLYHHNVERSLLWDVLQRYQHVPALLQRPGWYRTWPALMQDISRDLWDQGDKPVPPLRQLFWHHLRRHGLWHLAGDVIRSLRCL | not soluble
18 | MSDRKAVIKNADMSEDMQQDAVDCATQAMEKYNIEKDIAAYIKKEFDKKYNPTWHCIVGRSGNFGSYVTHETKHFIYFYLGQVAILLFKSG | soluble
19 | MDKEKVLDKIKKCLALGRSVNEHEAAQALRQAQALMEKYKVNAEDIALSKVSEQKADRKMAFKLAGWQWGVANMIADIFGCKSYQRGKTMMFYGIGNRAETSAYAFDVVYRQISADRRKFLKTCRAGKPSHRTYLADRFCGGWIASAWETVKKFEMSDEEKAIMDGYKKKEYPDMAEARTRDAKSSILQGSKMEYEALTRGMESGKQVKLHYAVNGTGFVKQIGGQT | not soluble
20 | MSLKILVIGPSWVGDMMMSQSLYRTLKARYPQAIIDVMAPAWCRPLLSRMPEVNEAIPMPLGHGALEIGERRRLGHSLREKRYDRAWVLPNSFKSALIPFFANIPHRTGWRGEMRYGLLNDARVLDKDAWPLMVERYVALAYDKGVMRAAKDLPQPLLWPQLQVSEGEKSLMCSDFSLSSERPLIGFCPGAEFGPAKRWPHYHYAELAKQLINEGYQVVLFGSAKDHEAGNEILAALNSEQQAWCRNLAGETQLEQAVILIAACKAIVTNDSGLMHVAAALDRPLVALYGPSSPDFTPPLSHKARVIRLITGYHKVRKGDTAQGYHQSLIDITPQRVLEELHSLLSEEGVEGGSHHHHHH | soluble
21 | MPSDLIPLIELHQVSKTFGKPVAEHSLQGLLQRLHLTRPKPVTHAVDRVDLRIMRGEVVGLVGESGCGKSTLGRMVAGLLPVSSGVASVDGKPLDSLTTQERKALRLKVQMIFQDPSSSLNPRLRVDRIVGEGALLHGLTDRKGADDYVSAQLQRAGLNPQLRQRYPHQFSGGQRQRIGIARALAVQPELLVCDESVAALDVSIQAQILNLFMDLRDELGLTYLFISHDLGVVEHLCDRVVVMYLGRVVETASVDDLFARANHPYTQALLAQIPRFDIRSTRYDAIQGEIPSPLNPPTGCHFHPRCPHAMARCREEVPALREVSPNHQSACHLNDQR | not soluble
22 | MGSDKIHHHHHHMTVAQLLIPQMYSSKSTGEAVGRHPLNFYESPSWFTTELLRHVRLSGVVGEPCVGMGAIASLLSVWPYTKQMWTNDIDPHKSANYQMDATLSESWAKFPDCDWICTNPPYSEFAAPIIKNAYCKAHVGVAAFLLTSFLEPCDDRADFLQQHPPSLVLIMPRFCFRKDKRGTRWATDNVTISCFVWDKRATGQQIIVRPKSAIAGFYKNPEQAISQERAEKIVRAIAKGEL | not soluble
